Paper PMC9253517 (The Journal of Experimental Medicine, 2022)
Residue numbers refer to the chain shown, from its start.

B1: JR172 (antibody, V domains shown)
VH: EVQLVESGGGLVQPGRSLRLSCAASGFTFDDYAMHWVRQTPGKGLEWVSSISWNSGSIGYADSVKGRFTISRDNAKNSLYLQMNSLRAEDTALYYCAKDKRIDYSNYGGGFDHWGQGTLVTVSS
VL: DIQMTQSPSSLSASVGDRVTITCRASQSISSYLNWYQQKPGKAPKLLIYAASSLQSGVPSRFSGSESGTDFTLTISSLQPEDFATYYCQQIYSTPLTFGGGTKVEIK
B2: JR171 (antibody, V domains shown)
VH: QVQLVQSGAEVKKPGASVKVSCKASGYTFTSYYMHWVRQAPGQGLEWMGIINPSGGSTSYAQKFQGRVTMTRDTSTSTVYMELSSLRSEDTAVYYCARAYDSAPGFDYWGQGTLVTVSS
VL: DIQLTQSPSFLSASVGDRVTITCRASQGISSYLAWYQQKPGKAPKLLIYAASTLQSGVPSRFSGSGSGTEFTLTISSLQPEDFATYYCQQLNSYPSITFGQGTRLEIK
B3: JR216 (antibody, V domains shown)
VH: QLQLQESGPGLVKPSETLSLTCTVSGGSISSGSYFWGWIRQPPGKGLEWIGNIYNSGSTYYSPSLKSRVTISVNTSKNQFSLKMSSVTAADTAVYYCARQPWLRSQFDYWGQGTLVTVSS
VL: NFMLTQPHSVSESPGKTVTISCTGSSGSIASNYVQWYQQRPGSAPTNVIYEDNQRPSGVPDRFSGSIDSSSNSASLTISGLKTEDEADYYCQSYDSSTVVFGGGTKLTVL
B4: JR092 (antibody, V domains shown)
VH: QVQLVESGGGLVKPGGSLRLSCAASGFTFSDYYMSWIRQAPGKGLEWVSYSSSRGSIIHYADSVKGRFTISRDNAKNSLCLQMNSLRAEDTAVYYCARATTPYSGYSMWGQGTLVTVSS
VL: B3 VL with N47T, T98N, V99W
B5: JR210 (antibody, V domains shown)
VH: EVQLVESGGGLVQPGGSLRLSCAASGFTFSNYWMTWVRQAPGKGLEWVANIKQDGSEKYYVDSVKGRFTISRDNAKNSLYLQMNSLRAEDTAVYYCARDLAVAISWFDPWGQGTLVTVSS
VL: B3 VL with I20M, G24R, A44S, N47T, Q92H, S97P, T98R
B6: JR097 (antibody, V domains shown)
VH: QVQLVQSGAEVKKPGASVKVSCKTSAYTFTTYFMHWVRQAPGQGLEWMGIINPSGGSTRYAQKFQGRVTMTRDTSTSTVYMELSGLRSEDTAVYYCARERRPGFYDSSGYSFDYWGQGTLVTVSS
VL: SYELTQPPSVSVAPGKTARITCGGNNIGSKSVHWYQQKPGQAPVLVVYDDSDRPSGIPERFSGSNSGNTATLTISRVEAGDEADYYCQVWDSSSDPVVFGGGTKLTVL
B7: JR041 (antibody, V domains shown)
VH: EVQLVESGGGLVQPGRSLRLSCAASGFTFDDYAMYWVRQAPGKGLEWVSGISWNSGSIGYADSVKGRFTISRDNAKNSLYLQMNSLRAEDTALYYCAKDISYHTGTIDYWGQGTLVTVSS
VL: QSALTQPASVSGSPGQSITISCTGTSSDIGGYNYVSWYQQHPGKAPKLMIYDVSNRPSGVSNRFSGSKSGNTASLTISGLQAEDEADYYCSSYTSSSTLGVGGGTKLTVL
B8: JR211 (antibody, V domains shown)
VH: QVQLQESGPGLVKPSGTLSLTCAVSGGSISSSHWWNWVRQPPGKGLEWIGEIYHSGSTNYSPSLKSRVTISVDKSKNQFSLKLSSVTAADTAVYYCAKSMRAGPNDGFDYWGQGTLVTVSS
VL: B7 VL with I29V, L99V, G100V, V101F
B9: JR090 (antibody, V domains shown)
VH: QVQLQQWGAGLLKPSETLSRTCAVYGGSFSGHYWSWIRQPPGKGLEWIGEINHSGSTNYNPSLKSRVTISVDTSKNQFSLKLSSVTAADTAVYYCARGSRAVAGTAVYFDLWGRGTLVTVSS
VL: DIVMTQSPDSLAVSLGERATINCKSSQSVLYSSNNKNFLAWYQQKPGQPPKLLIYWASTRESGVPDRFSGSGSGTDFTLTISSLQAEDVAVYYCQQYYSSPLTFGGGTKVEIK
B10: JR094 (antibody, V domains shown)
VH: EVQLVQSGAEVKKPGESLKISCKGSGYSFIFYWIGWVRQMPGKGLEWMGIIYPGDSDTRYSPSFQGQVTISADKSISTAYLQWSSLKASDTAMYYCASTVTRSPYDAFDMWGQGTMVTVSS
VL: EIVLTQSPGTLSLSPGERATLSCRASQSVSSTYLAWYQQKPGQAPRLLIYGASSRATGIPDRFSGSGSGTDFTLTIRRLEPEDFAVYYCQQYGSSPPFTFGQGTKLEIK
B11: JR095 (antibody, V domains shown)
VH: VQLVESGGGVVQPGRSLRLSCAASGFTFSRYAMHWVRQAPGKGLQWVAIISYDGSNKYYADSVKGRFTISRDNSKNTLYLQMNSLRAEDTAVYYCARHITGTDYWGQGTLVTVSS
VL: DIQMTQSPSSLSASVGDRVTITCRASQGISIYLAWFQQKPGKAPKSLIYAASNLQSGVPSKFSGSGSGTDFTLTISSLQPEDFATYYCQQYDSYPITFGQGTRLEIK
B12: JR093 (antibody, V domains shown)
VH: QVQLVQSGAEVKKPGSSVKVSCKASGGTFSSYAISWVRQAPGQGLEWMGRIVPILNIANYAQRFQGRVTITADKSTSTAYMELSSLRSEDTAVYYCASPGSLLLGERIDELQFDYWGQGTLVTVSS
VL: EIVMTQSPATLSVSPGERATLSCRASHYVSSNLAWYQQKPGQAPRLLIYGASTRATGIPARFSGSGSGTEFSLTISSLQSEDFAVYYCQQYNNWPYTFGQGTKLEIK
B13: JR215 (antibody, V domains shown)
VH: QVQLVQSGAEVKKPGASVKVSCKASGYTFTGYYMHWVRQAPGQGLEWMGRINPNSGDTNFPQKFQGRVTMTRDTSISTAYMELSRLRSDDTAVYYCARDGVADFNYDYWGQGTLVTVSS
VL: LTQPASVSGSPGQSITISCTGSSSDVGSYNLVSWYQQHPGKAPKLMIYEVSRRPSGVSNRFSGSKSGNTASLTISGLQAEDEADYYCCSYAGSSTWEVLFGGGTKLTVL
B14: JR212 (antibody, V domains shown)
VH: QVQLVQSGAEVKKPGSSVKVSCKASGGTFSNYAISWVRQAPGQGLEWMGGIIPLFGTTNYAQKFQGRVTITADESTSTAYMELSSLRSEDTAMYYCASYSSGYHLVTDYWGQGTLVTVSS
VL: EIVLTQSPGTLSLSPGERATLSCRASQSVTSSYLAWYQQKPGQAPRLLIYGASSRATGIPDRFSGSGSGTDFTLTISRLEPEDFAVYYCQQYGTSRTFGQGTKVEIK
B15: JR310 (antibody, V domains shown)
VH: EVQLVESGGGLIQPGGSLRLSCAASGFTVSSNYMSWVRQAPGKGLEWVSVIYSGGSTYYADSVKGRFTISRDNSKNTLYLQMNSLRAEDTAVYYCARGDPSDYYYYGMDVWGQGTTVTVSS
VL: QSVLTQPPSVSGAPGQRVTISCTGSSSNIGAGYDVHWYQQLPGTAPKLLIYGNSNRPSGVPDRFSGSKSGTSASLAITGLQAEDEADYYCQSYDSSLSGSGVFGTGTKVTVL
B16: JR088 (antibody, V domains shown)
VH: QVQLQQSGPGLVKPSQTLSLTCAISGDSVSSDSAAWNWIRQSPSRGLEWLGRTYYRSKWSNDYEVSVKSRITINPDTSKNQFSLQLNSVTPEDTAVYYCAKQQLVLDDAFDIWGQGTMVTVSS
VL: QSALTQPRSVSGSPGQSVTISCTGTSSDVGGHNYVSWYEQHPGKAPKLMMYDVSKRPSGVPDRFSGSKSGNTASLTISGLQAEDEADYYCCSYAGSYIWVFGGGTKLTVL
B17: JR170 (antibody, V domains shown)
VH: QVQLVQSGAEVRKPGASVKVSCKASRYTFTNNYIHWVRQAPGQGLEWMGIINPSGGSTTYAQKFQGRVTMTGDTSTSTVYMELSSLRSEDTAVYYCARGGFVPAATSYFDYWGQGTLVTVS
VL: B16 VL with H32Y, E39Q, M50I, I98T, W99L
B18: JR174 (antibody, V domains shown)
VH: QVQLVQSGAEVKKPGSSVKVSCKASGGTFSSYAISWVRQAPGQGLEWMGGIIPIFGTAHYAQKFQGRVTITADESTSTAYMELSSLRSEDTAVYFCARDLGGIQLYLLAYWGQGTLVTVSS
VL: EIVLTQSPVTLSLSPGERATLSCRASQSVSSTYLAWYQQKPGQAPRLLIYGASSRATGIPDRFSGSGSGTDFTLTISRLEPEDFAVYYCQQYVGSPGTFGQGTKVEIK
B19: JR086 (antibody, V domains shown)
VH: QVQLVQSGAEVKKPGASVKVSCKASGYTFTGYYMHWVRQAPGQGLEWMGWINPISGATNYAQKFQGGVTMTRDTSISTAYMELSRLRSDDTAVYYCARVNHIVVVTAIDPIYGMDVWGQGTTVTVSS
VL: QSALTQPASVSGSPGQSITISCTGTSSDVGGYNYVSWYQQHPGKAPKLMIYEVSNRPSGVSNRFSGSKSGNTASLTISGLQAEDEADYYCSSYTSSSTLYYVFGTGTKVTVL
B20: JR179 (antibody, V domains shown)
VH: QVQLVQSGAEVKKPGASVKVSCKASGYTFSSFAISWVRQAPGQGLEWMGWISAYNGNTNYAQNLQGRVTMTTDTSTSTVYMELRSLRSDDTAVYYCAREAGLTGNLDYWGQGTLVTVSS
VL: SYELTQPPSVSVAPGQTARITCGGNNIGSKNVHWYQQKPGQAPVVVVYDDSDRPSGIPERFSGSNSGNTATLTISRVEAGDEADYYCQVWDSRSYHHVVFGGGTKLTVL
B21: JR049 (antibody, V domains shown)
VH: EVQLVESGGGLVQPGGSLRLSCAASGFTFSSYDMHWVRQVTGKGLEWVSGIGTAGDTYYRDSVKGRFTISRENAKKSLYLQMNSLRAGDTAVYYCARDNGALYYYGSGAMDVWGKGTTVTVSS
VL: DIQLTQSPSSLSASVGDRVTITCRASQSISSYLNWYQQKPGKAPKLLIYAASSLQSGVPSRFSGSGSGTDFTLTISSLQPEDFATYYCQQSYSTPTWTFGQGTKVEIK

target: T1, SARS-CoV-2 Wuhan-Hu-1 RBD (SARS-CoV-2, Wuhan-Hu-1 (GenBank …, UniProt P0DTC2)); assay: cell-based or functional assay; conditions: not given

| Binder | neutralisation IC50, Wuhan-Hu-1 pseudovirus [mg/L] |
| --- | --- |
| B1 | > 1 |
| B2 | > 1 |
| B3 | 0.0458 |
| B4 | 0.109 |
| B5 | 0.0897 |
| B6 | > 1 |
| B7 | 0.0547 |
| B8 | > 1 |
| B9 | > 1 |
| B10 | > 1 |
| B11 | > 1 |
| B12 | 0.131 |
| B13 | 0.0448 |
| B14 | 0.178 |
| B15 | 0.219 |
| B16 | 0.0381 |
| B17 | > 1 |
| B18 | 0.0798 |
| B19 | 0.0358 |
| B20 | > 1 |
| B21 | > 1 |

target: T1, SARS-CoV-2 Wuhan-Hu-1 RBD; assay: BLI; conditions: both partners purified

| Binder | binding result |
| --- | --- |
| B1 | binds |
| B2 | binds |
| B3 | binds |
| B4 | binds |
| B5 | binds |
| B6 | binds |
| B7 | binds |
| B8 | binds |
| B9 | binds |
| B10 | binds |
| B11 | binds |
| B12 | binds |
| B13 | binds |
| B14 | binds |
| B15 | binds |
| B16 | binds |
| B17 | binds |
| B18 | binds |
| B19 | binds |
| B20 | binds |
| B21 | binds |
